Here are results for ten sequences from the supplement of paper PMC10724198.

± gives the standard deviation of the averaged measurements.

Data set [1] relates to Saccharomyces cerevisiae. As to the kind of experiment: protein stability index of tFT-peptide fusion (C-terminal peptide) (PSI (0-1 scale)); higher = more stable (slower turnover). The note with it: genetic background: wild type; temperature: 30 C.
The subject of data set [2] is Saccharomyces cerevisiae. The data set is described as above. Here is the method:
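MPS profiling in S. cerevisiae of the tFT-X12 degron library: putative degron peptides plus stable controls, 12 aa, fused to the C-terminus of a sfGFP-mCherry timer. Cells are FACS-sorted into 8 mCherry/sfGFP bins and deep-sequenced. PSI runs from 0 (unstable) to 1 (stable). Backgrounds are wild type, das1Δ and doa10Δ at 30 °C, and wild type, das1Δ, cdc34-1 and cdc53-1 at 37 °C; 2-3 technical replicates each.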

Where [3] appears, read: genetic background: cdc34-1, temperature: 37 C.
[4] abbreviates: genetic background: cdc53-1, temperature: 37 C.
The mark [5] stands for this setting: genetic background: das1 deletion, temperature: 30 C.
Setting [6] is: genetic background: das1 deletion, temperature: 37 C.
Where [7] appears, read: genetic background: doa10 deletion, temperature: 30 C.
[8] abbreviates: genetic background: wild type, temperature: 30 C.
The mark [9] stands for this setting: genetic background: wild type, temperature: 37 C.
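Further: PSI is a weighted mean of sequencing reads over stability bins, variants kept only with over 10 reads, mCherry proximal and sfGFP distal, peptide attached via GGGS linker.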

Consider AYVAPRRALMCS, for which the protein stability index amounted to 0.421 ± 0.069 in the data set on Saccharomyces cerevisiae [1]; 0.422 ± 0.02 in the data set with Saccharomyces cerevisiae [2] (setting [3]); 0.495 ± 0.019 with Saccharomyces cerevisiae [2] (setting [4]); 0.352 ± 0.031 in the data set on Saccharomyces cerevisiae [2] (setting [5]); 0.517 ± 0.011 in the data set on Saccharomyces cerevisiae [2] (setting [6]); 0.259 ± 0.011 in the data set on Saccharomyces cerevisiae [2] (setting [7]). In addition, the protein stability index was 0.281 ± 0.018 in the data set with Saccharomyces cerevisiae [2] (setting [8]) and 0.406 ± 0.017 in the data set with Saccharomyces cerevisiae [2] (setting [9]).
Turning to CEERVKSRLKQN, the protein stability index is 0.226 ± 0.082 with Saccharomyces cerevisiae [1]; 0.619 ± 0.011 with Saccharomyces cerevisiae [2] (setting [3]); 0.68 ± 0.013 in the data set with Saccharomyces cerevisiae [2] (setting [4]); 0.653 ± 0.043 in the data set on Saccharomyces cerevisiae [2] (setting [5]); 0.728 ± 0.014 in the data set on Saccharomyces cerevisiae [2] (setting [6]); 0.174 ± 0.012 in the data set with Saccharomyces cerevisiae [2] (setting [7]). Further, the protein stability index in the data set with Saccharomyces cerevisiae [2] (setting [8]) was found to be 0.18 ± 0.031; in the data set with Saccharomyces cerevisiae [2] (setting [9]), 0.307 ± 0.022.
As to CFCLFVFFISSC, the protein stability index stood at 0.362 ± 0.057 in the data set on Saccharomyces cerevisiae [1]; 0.2112 ± 0.00091 in the data set on Saccharomyces cerevisiae [2] (setting [3]); 0.414 ± 0.015 in the data set with Saccharomyces cerevisiae [2] (setting [4]); 0.223 ± 0.033 with Saccharomyces cerevisiae [2] (setting [5]); 0.459 ± 0.015 in the data set on Saccharomyces cerevisiae [2] (setting [6]); 0.19 ± 0.019 in the data set with Saccharomyces cerevisiae [2] (setting [7]). Further, the protein stability index in the data set with Saccharomyces cerevisiae [2] (setting [8]) is 0.233 ± 0.019; in the data set on Saccharomyces cerevisiae [2] (setting [9]), 0.397 ± 0.015.
As to CFCSFQFVRLWV, the protein stability index in the data set with Saccharomyces cerevisiae [1] came to 0.452 ± 0.062; in the data set with Saccharomyces cerevisiae [2] (setting [3]) it was 0.593 ± 0.0065; in the data set with Saccharomyces cerevisiae [2] (setting [4]) it was 0.6165 ± 0.0048; in the data set on Saccharomyces cerevisiae [2] (setting [5]), 0.49 ± 0.028; in the data set with Saccharomyces cerevisiae [2] (setting [6]), 0.6443 ± 0.0064; in the data set on Saccharomyces cerevisiae [2] (setting [7]), 0.455 ± 0.03. Further, the protein stability index was determined as 0.444 ± 0.011 in the data set on Saccharomyces cerevisiae [2] (setting [8]) and 0.58 ± 0.0096 in the data set on Saccharomyces cerevisiae [2] (setting [9]).
In the case of EGREGGGRGEVL, the protein stability index with Saccharomyces cerevisiae [2] (setting [3]) turned out to be 0.455 ± 0.011; in the data set on Saccharomyces cerevisiae [2] (setting [4]), 0.589 ± 0.04; in the data set on Saccharomyces cerevisiae [2] (setting [5]), 0.471 ± 0.029; in the data set with Saccharomyces cerevisiae [2] (setting [6]) it was 0.496 ± 0.03; in the data set with Saccharomyces cerevisiae [2] (setting [7]), 0.482 ± 0.024; in the data set on Saccharomyces cerevisiae [2] (setting [8]), 0.479 ± 0.011. This sequence displayed a protein stability index in the data set on Saccharomyces cerevisiae [2] (setting [9]) of 0.472 ± 0.013.
For FSQGFRSPSECL, the protein stability index with Saccharomyces cerevisiae [2] (setting [3]) stood at 0.712 ± 0.03; in the data set on Saccharomyces cerevisiae [2] (setting [4]) it was 0.764 ± 0.014; with Saccharomyces cerevisiae [2] (setting [5]), 0.63 ± 0.016; in the data set on Saccharomyces cerevisiae [2] (setting [6]), 0.765 ± 0.036; with Saccharomyces cerevisiae [2] (setting [7]), 0.647 ± 0.011; in the data set with Saccharomyces cerevisiae [2] (setting [8]) it was 0.655 ± 0.023. In addition, in the data set with Saccharomyces cerevisiae [2] (setting [9]), the protein stability index amounted to 0.7608 ± 0.0072.
Regarding FVVVVVWVSRGL, the protein stability index in the data set with Saccharomyces cerevisiae [2] (setting [3]) is 0.174 ± 0.0059; in the data set with Saccharomyces cerevisiae [2] (setting [4]), 0.399 ± 0.05; with Saccharomyces cerevisiae [2] (setting [5]), 0.214 ± 0.036; with Saccharomyces cerevisiae [2] (setting [6]) it was 0.423 ± 0.008; with Saccharomyces cerevisiae [2] (setting [7]) it was 0.172 ± 0.029; in the data set on Saccharomyces cerevisiae [2] (setting [8]), 0.196 ± 0.048. The same sequence showed a protein stability index with Saccharomyces cerevisiae [2] (setting [9]) of 0.383 ± 0.023.
For the sequence GGRREWCRGGGV, the protein stability index with Saccharomyces cerevisiae [2] (setting [3]) came to 0.635 ± 0.11; in the data set with Saccharomyces cerevisiae [2] (setting [4]), 0.746 ± 0.034; with Saccharomyces cerevisiae [2] (setting [5]), 0.555 ± 0.029; in the data set with Saccharomyces cerevisiae [2] (setting [6]) it was 0.695 ± 0.03; with Saccharomyces cerevisiae [2] (setting [7]), 0.544 ± 0.0089; in the data set on Saccharomyces cerevisiae [2] (setting [8]) it was 0.546 ± 0.015. The protein stability index in the data set with Saccharomyces cerevisiae [2] (setting [9]) came to 0.708 ± 0.03.
RWCLVWGGVWGV: the protein stability index was 0.593 ± 0.03 in the data set with Saccharomyces cerevisiae [2] (setting [3]); 0.68 ± 0.025 with Saccharomyces cerevisiae [2] (setting [4]); 0.494 ± 0.029 with Saccharomyces cerevisiae [2] (setting [5]); 0.674 ± 0.02 in the data set with Saccharomyces cerevisiae [2] (setting [6]); 0.486 ± 0.013 in the data set on Saccharomyces cerevisiae [2] (setting [7]); 0.5 ± 0.017 with Saccharomyces cerevisiae [2] (setting [8]). In the data set with Saccharomyces cerevisiae [2] (setting [9]), this sequence yielded a protein stability index of 0.645 ± 0.011.
Turning to SSLRATLLIRAV, the protein stability index in the data set on Saccharomyces cerevisiae [2] (setting [3]) was determined as 0.543 ± 0.023; in the data set with Saccharomyces cerevisiae [2] (setting [4]), 0.564 ± 0.011; in the data set on Saccharomyces cerevisiae [2] (setting [5]), 0.44 ± 0.019; in the data set with Saccharomyces cerevisiae [2] (setting [6]) it was 0.584 ± 0.0032; in the data set with Saccharomyces cerevisiae [2] (setting [7]), 0.352 ± 0.025; in the data set on Saccharomyces cerevisiae [2] (setting [8]) it was 0.371 ± 0.032. Besides, the protein stability index in the data set on Saccharomyces cerevisiae [2] (setting [9]) worked out at 0.5171 ± 0.0041.
